Changes are numbered by the printed parent chain.
B1: SR-AB62: cycle 3 light chain-optimized antibody, lineage SR-AB24; CDRs SEQ ID NO: 286-291 (antibody, V domains shown)
VH: QLQLQESGPGLAKPSETLSLTCTVSGGSIRSSSYYWGWIRQPPGKGLEWIGSISYSATTYYNPSLKSRVTISVDTSKNQFSLKLSSVTAADTAVYYCASDPSYDSAAGMDVWGQGTTVTVSS
VL: DIQMTQSPSSLSASVGDRVTITCRASKVISSYLNWYQQKPGKAPKLLIYYASSLQSGVPSRFSGSGSGTDFTLTISSLQPEDFATYYCQQSNDWPFTFGGGTKVEIK
B2: SR-AB64: cycle 3 light chain-optimized antibody, lineage SR-AB26; CDRs SEQ ID NO: 298-303 (antibody, V domains shown)
VH: B1 VH with A12V, S99G, A106I, D110Q
VL: B1 VL with K27Q, V28S, S31Y, Y50S, L54R, S91G, N92F, W94F, F96L
B3: SR-AB40: cycle 3 light chain-optimized antibody, lineage SR-AB23; CDRs SEQ ID NO: 154-159 (antibody, V domains shown)
VH: QVQLVESGGGVVQPGRSLRLSCAASGFTFRSYVMHWVRQAPGKGLEWVAVISHEGSLKYYADSVKGRFTISRDNSKNTLYLQMNSLRAEDTAVYYCARPRIAARRGGFGYWGQGTLVTVSS
VL: NFMLTQPHSVSESPGKTVTISCTRSSGNIDNNYVQWYQQRPGSSPTTVIYEDNQRPSGVPDRFSGSIDSSSNSASLTISGLKTEDEADYYCQSYDYSNQGVVFGGGTKLTVL
B4: SR-Ab56 Fab (antibody, V domains shown)
VH: B3 VH with L57G, R98L, Y110S
VL: B3 VL with N31Y, Q54V, S97D, N98T
B5: SR-AB54 Fab (antibody, V domains shown)
VH: B3 VH with L57G, R98L, Y110S
VL: B3 VL with N31Y, Q54V, Y96S, S97D, G100R
B6: SR-AB23 Fab (antibody, V domains shown)
VH: B3 VH
VL: B3 VL with Y96S, S97D
B7: SR-AB53 Fab (antibody, V domains shown)
VH: B3 VH with L57G, Y110T
VL: B3 VL with N31Y, Q54V, S93G, Y96W, S97D, N98T
B8: SR-AB47 Fab (antibody, V domains shown)
VH: B3 VH with L57G, Y110S
VL: B3 VL with N31Y, Q54V, S97D, G100A
B9: SR-AB50 Fab (antibody, V domains shown)
VH: B3 VH with L57G, Y110T
VL: B3 VL with N31Y, Q54V, Y96S, S97D, G100R
B10: SR-AB58 Fab (antibody, V domains shown)
VH: B3 VH with L57G, R98L, Y110T
VL: B3 VL with N31Y, Q54V, Y96S, S97D, G100R
B11: SR-AB52 Fab (antibody, V domains shown)
VH: B3 VH with L57G, Y110T
VL: B3 VL with N31Y, Q54V, S97D, N98T
B12: SR-AB59 Fab (antibody, V domains shown)
VH: B3 VH with L57G, R98L, Y110T
VL: B3 VL with N31Y, Q54V, S97D, G100A
B13: SR-AB49 Fab (antibody, V domains shown)
VH: B3 VH with L57G, Y110S
VL: B3 VL with N31Y, Q54V, S93G, Y96W, S97D, N98T

Molecular target: huGARP proTGFβ1 (Homo sapiens, UniProt P01137)
Sequence (P01137 30-390): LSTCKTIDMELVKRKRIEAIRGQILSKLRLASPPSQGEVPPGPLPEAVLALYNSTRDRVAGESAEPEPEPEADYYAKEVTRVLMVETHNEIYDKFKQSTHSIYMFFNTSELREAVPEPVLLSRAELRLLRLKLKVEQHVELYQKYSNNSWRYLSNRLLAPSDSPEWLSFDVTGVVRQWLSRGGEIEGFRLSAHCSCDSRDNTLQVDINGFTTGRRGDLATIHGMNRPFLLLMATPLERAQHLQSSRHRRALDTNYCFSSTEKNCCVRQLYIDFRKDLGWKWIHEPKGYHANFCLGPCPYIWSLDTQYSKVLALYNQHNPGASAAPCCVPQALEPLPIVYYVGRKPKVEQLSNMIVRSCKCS
Sequence (Q14392 18-627 partner limits assumed): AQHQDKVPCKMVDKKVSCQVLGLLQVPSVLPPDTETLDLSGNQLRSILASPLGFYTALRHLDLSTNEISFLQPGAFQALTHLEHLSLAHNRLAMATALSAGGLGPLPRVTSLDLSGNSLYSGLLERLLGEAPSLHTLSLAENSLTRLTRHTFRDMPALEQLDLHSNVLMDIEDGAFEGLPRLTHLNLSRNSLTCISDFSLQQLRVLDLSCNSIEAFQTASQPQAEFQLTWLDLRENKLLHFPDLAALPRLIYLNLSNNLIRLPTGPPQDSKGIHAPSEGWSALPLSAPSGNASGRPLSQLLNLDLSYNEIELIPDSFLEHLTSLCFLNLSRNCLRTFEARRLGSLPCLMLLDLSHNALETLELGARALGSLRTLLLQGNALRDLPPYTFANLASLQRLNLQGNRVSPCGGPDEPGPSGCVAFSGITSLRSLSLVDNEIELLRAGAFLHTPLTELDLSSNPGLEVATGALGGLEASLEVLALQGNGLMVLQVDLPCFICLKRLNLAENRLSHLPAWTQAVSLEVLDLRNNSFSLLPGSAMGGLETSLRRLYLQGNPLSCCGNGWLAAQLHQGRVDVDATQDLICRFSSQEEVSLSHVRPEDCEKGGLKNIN
Experiment: Octet (BLI) binding, IgG captured on AHC tips, antigen at 100 nM
Conditions: Table 9; cycle 3; IgG1-agly; 1:1 fit; N.B. = non-binder under conditions of this assay
Procedure: (§1) Suitable methods for in vitro binding assays to determine the parameters of binding kinetics include Bio-layer Interferometry (BLI)-based assays such as Octet, and surface plasmon resonance (SPR)-based assays, such as Biacore systems (see, for example: biophysics.bioc.cam.ac.uk/wp-content/uploads/2011/02/Biacore_assay_handbook.pdf).
(§2) The affinity of SR-AB10, SR-AB2 and SR-AB13 was measured by Octet assay. The protocol used to measure the affinity of the antibodies to the complexes provided herein is summarized below.
(§3) • 96 well black polypropylene plates • AHC Octet tips (anti-human IgG Fc capture tips) (FortdBio) • 10× kinetics buffer (FortdBio) (diluted to 1× in PBS) • reiner Bio-One 96-Well Half Area Microplates (VWR cat #82050-044) Procedure:
(§4) Notes: The volume within each well during an Octet experiment is 100 uL.
(§5) A shake speed of 1000 rpm is used for all assay steps.
(§6) Pre-Wet Tips: • Biosensors must be pre-wet in 1× kinetics buffer (lx KB) for at least 10 minutes before starting an experiment. This can be done inside the Octet or on the bench.
(§7) Loading: • Tips are baselined in 1× KB for 1 minute before loading. • AHC tips are loaded with antibody at a concentration of 1 μg/mL (˜7 nM) for 3 minutes. A limit is set so that loading will stop when any one sensor reaches a response of 1 nanometer. • Tips are baselined in buffer for 1 minute after loading. The antibody should not dissociate from the tips during this time.
(§8) Antigen Association: • TGFβ1 in complex with various presentation molecules was associated to the immobilized antibodies at a single concentration of 100 nM in 1× KB.
(§9) Antibody Dissociation: • Dissociation in 1×KB was performed for 3 minutes.
(§10) Data Analysis using ForteBio Data analysis software 8.2: • Processing: align Y axis to last 5 seconds of baseline, perform inter-step correction with align to dissociation, and perform Savitzky-Golay filtering. • Analysis: 1:1 fitting model is utilized. Fitting is local and full. […] Results:
(§11) LTBP complex-specific antibodies from the first round of affinity maturation/optimization (SR-AB14, SR-AB16, SR-AB17, SR-AB18, SR-AB19) were selected for a second round of affinity maturation/optimization (i.e., CDR-H3 mutagenesis as described herein) and particular progeny antibodies (SR-AB20, SR-AB21, SR-AB22, SR-AB23, SR-AB24, SR-AB25, SR-AB26, SR-AB27, SR-AB28, and SR-AB29) were assessed for their ability to bind various proTGFβl constructs. Binding affinities of the optimized antibodies were measured by Octet against human LTBP1-proTGFβI, human LTBP3-proTGFb1, mouse LTBP1-proTGFβ1, mouse LTBP3-proTGFb1, and GARP-proTGFβl complexes, essentially as described in Example 6. In brief, test antibodies were immobilized to the surface of anti-human Fc capture biosensors (AHC) (ForteBio®) and binding was then tested against the various TGFβ1 complexes at a single concentration of 100 nM to assess binding affinities. The antigens were allowed to associate for 3 minutes followed by a 5-minute dissociation. Kinetics buffer (ForteBio®) was used throughout the experiment, and KD was determined using a 1:1 fitting model for each antibody antigen pair.
(§12) Binding affinities of the optimized antibodies were measured by Octet against human LTBP1-proTGFβ1, human LTBP3-proTGFβ1, mouse LTBP1-proTGFβ1, mouse LTBP3-proTGFβ1, and GARP-proTGFβ1 complexes, essentially as described in Example 6. In brief, test antibodies were immobilized to the surface of anti-human Fc capture biosensors (AHC) (ForteBio®) and binding was then tested against the various TGFβ1 complexes at a single concentration of 100 nM to assess binding affinities. The antigens were allowed to associate for 3 minutes followed by a 5-minute dissociation. Kinetics buffer (ForteBio®) was used throughout the experiment, and KD was determined using a 1:1 fitting model for each antibody antigen pair. […]

ForteBio IgG KD Hu GARP-proTGFβ1 (M) Avid | Molecule
N.B. | B1
N.B. | B2
N.B. | B3

Same assay, conditions: Table 10; same assay conditions as Table 9; N.B. = non-binder under conditions of this assay

ForteBio IgG KD Hu GARP-proTGFβ1 in solution (M) Avid | Molecule
N.B. | B1
N.B. | B2
N.B. | B3

Molecular target: huLTBP1 proTGFβ1 (Homo sapiens, UniProt P01137+Q14766)
Sequence (P01137 30-390): as the sequence (P01137 30-390) above
Sequence (Q14766 347-1721 limits assumed): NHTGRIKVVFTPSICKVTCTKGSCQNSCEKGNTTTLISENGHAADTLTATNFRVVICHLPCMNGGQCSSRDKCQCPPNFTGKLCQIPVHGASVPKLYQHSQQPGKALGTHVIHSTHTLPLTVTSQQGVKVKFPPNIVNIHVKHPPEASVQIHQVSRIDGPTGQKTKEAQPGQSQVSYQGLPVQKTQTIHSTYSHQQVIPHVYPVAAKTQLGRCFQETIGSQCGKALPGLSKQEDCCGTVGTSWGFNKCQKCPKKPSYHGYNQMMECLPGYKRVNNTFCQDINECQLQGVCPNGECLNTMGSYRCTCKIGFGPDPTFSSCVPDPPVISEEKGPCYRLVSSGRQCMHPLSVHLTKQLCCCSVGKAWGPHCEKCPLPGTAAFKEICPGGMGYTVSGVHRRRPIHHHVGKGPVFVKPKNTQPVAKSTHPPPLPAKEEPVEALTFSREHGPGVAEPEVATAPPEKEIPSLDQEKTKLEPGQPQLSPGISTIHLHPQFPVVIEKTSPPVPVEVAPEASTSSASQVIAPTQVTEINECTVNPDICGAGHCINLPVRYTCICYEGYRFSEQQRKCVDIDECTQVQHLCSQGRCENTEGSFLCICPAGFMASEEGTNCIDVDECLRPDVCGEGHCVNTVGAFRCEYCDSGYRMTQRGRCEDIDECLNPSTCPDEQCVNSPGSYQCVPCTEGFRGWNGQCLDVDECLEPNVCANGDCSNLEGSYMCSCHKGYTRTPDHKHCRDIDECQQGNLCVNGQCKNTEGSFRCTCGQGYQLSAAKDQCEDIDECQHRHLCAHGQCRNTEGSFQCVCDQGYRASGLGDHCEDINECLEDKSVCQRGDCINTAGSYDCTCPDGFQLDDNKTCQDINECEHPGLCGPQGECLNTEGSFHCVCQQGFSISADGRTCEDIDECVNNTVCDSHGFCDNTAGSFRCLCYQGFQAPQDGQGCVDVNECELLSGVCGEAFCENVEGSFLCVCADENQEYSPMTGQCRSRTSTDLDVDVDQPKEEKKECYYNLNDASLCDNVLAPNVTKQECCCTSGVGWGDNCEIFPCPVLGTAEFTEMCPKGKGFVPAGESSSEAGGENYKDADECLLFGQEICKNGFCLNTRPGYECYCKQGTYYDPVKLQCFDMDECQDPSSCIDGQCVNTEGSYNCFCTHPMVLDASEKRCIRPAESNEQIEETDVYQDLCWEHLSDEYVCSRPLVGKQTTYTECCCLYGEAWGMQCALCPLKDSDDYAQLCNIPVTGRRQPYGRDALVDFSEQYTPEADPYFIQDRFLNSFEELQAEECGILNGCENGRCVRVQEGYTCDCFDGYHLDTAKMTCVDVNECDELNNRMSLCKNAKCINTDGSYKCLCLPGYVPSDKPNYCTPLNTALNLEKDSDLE
Experiment: as above
Conditions: Table 9; cycle 3; IgG1-agly; 1:1 fit
Procedure: as §1, §2, §3, §4, §5, §6, §7, §8, §9, §10, §11, §12

Hu LTBP1-proTGFβ1 Kon | Molecule
140000 M⁻¹ s⁻¹ | B1
150000 M⁻¹ s⁻¹ | B3

Same assay, conditions: Table 9; cycle 3; IgG1-agly; 5-minute dissociation

Hu LTBP1-proTGFβ1 Koff | Molecule
6.82e-05 s⁻¹ | B1
6e-05 s⁻¹ | B3

Molecular target: huLTBP3 proTGFβ1 (Homo sapiens, UniProt P01137+Q9NS15)
Sequence (P01137 30-390): as the sequence (P01137 30-390) above
Sequence (Q9NS15 44-1303): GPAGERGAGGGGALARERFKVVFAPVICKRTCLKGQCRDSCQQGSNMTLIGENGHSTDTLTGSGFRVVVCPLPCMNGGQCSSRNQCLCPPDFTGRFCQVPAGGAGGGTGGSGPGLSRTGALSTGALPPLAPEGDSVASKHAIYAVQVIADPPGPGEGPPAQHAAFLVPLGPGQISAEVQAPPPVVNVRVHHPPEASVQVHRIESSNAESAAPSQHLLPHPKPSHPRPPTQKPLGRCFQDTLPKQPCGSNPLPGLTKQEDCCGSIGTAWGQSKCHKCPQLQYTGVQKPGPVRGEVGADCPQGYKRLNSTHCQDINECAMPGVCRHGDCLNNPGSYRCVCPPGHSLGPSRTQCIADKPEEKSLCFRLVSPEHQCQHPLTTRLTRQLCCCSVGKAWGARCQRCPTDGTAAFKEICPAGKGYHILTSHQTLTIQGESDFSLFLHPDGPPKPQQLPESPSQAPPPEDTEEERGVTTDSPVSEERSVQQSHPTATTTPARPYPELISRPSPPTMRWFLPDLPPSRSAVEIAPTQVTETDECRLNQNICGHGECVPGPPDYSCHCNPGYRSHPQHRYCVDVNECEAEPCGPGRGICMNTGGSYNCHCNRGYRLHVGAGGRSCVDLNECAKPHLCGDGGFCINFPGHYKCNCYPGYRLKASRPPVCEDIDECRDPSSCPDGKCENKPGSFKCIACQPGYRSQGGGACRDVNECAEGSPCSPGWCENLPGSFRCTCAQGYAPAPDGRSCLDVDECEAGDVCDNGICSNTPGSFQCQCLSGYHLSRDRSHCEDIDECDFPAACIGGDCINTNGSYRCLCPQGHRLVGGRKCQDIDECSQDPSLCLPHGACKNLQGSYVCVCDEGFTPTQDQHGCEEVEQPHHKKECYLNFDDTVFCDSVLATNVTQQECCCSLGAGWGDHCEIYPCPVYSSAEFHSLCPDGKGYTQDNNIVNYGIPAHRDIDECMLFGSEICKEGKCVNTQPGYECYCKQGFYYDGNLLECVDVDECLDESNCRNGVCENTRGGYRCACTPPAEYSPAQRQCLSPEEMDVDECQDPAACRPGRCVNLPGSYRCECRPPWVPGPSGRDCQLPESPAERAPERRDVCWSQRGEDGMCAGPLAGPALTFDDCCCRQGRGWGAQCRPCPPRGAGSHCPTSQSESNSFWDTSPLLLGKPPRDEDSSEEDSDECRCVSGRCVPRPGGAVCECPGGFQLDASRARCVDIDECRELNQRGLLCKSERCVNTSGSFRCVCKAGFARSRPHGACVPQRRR
Experiment: as above
Conditions: Table 9; cycle 3; IgG1-agly; 1:1 fit
Procedure: as §1, §2, §3, §4, §5, §6, §7, §8, §9, §10, §11
Binding affinities of the optimized antibodies were measured by Octet against human LTBP1-proTGFβ1, human LTBP3-proTGFβ1, mouse LTBP1-proTGFβ1, mouse LTBP3-proTGFβ1, and GARP-proTGFβ1 complexes, essentially as described in Example 6. In brief, test antibodies were immobilized to the surface of anti-human Fc capture biosensors (AHC) (ForteBio®) and binding was then tested against the various TGFβ1 complexes at a single concentration of 100 nM to assess binding affinities. The antigens were allowed to associate for 3 minutes followed by a 5-minute dissociation. Kinetics buffer (ForteBio®) was used throughout the experiment, and KD was determined using a 1:1 fitting model for each antibody antigen pair.

Hu LTBP3-proTGFβ1 Kon | Molecule
203000 M⁻¹ s⁻¹ | B1
195000 M⁻¹ s⁻¹ | B2
182000 M⁻¹ s⁻¹ | B3

Same assay, conditions: Table 9; cycle 3; IgG1-agly; 5-minute dissociation

Hu LTBP3-proTGFβ1 Koff | Molecule
7.47e-05 s⁻¹ | B1
9.18e-05 s⁻¹ | B2
6.07e-05 s⁻¹ | B3

Tested on: proTGFβ1 presented by endogenous LTBP1/3 in LN229 cells
Sequence (P01137 30-390): as the sequence (P01137 30-390) above
Experiment: Endogenous LTBP caga assay: LN229 cells transfected with human proTGFβ1 only, CAGA12 luciferase reporter cells
Format: cell-based
Conditions: Table 20: protocol of Example 10 with Fabs (RefAb also as hIgG4), assay format not stated

IC50 | Molecule
0.439 nM | B4
5.87 nM | B5
8.53 nM | B6
1.18 nM | B7
0.186 nM | B8
11 nM | B9
4.86 nM | B10
0.459 nM | B11
0.195 nM | B12
1.02 nM | B13
